Reference: patent US20090099029A1, “Methods and substrates for conducting assays” (Invitrogen Corporation, priority 2005, published 2009)

What follows are molecules tested on kinases of Table 6 on Myelin Basic Protein (MBP) (assay: Kinase assay using MBP substrate, ProQ Diamond stain (Table 6)). Conditions: kinase printed on MBP-coated slide; 20 uM ATP, 30° C.; ProQ Diamond Microarray Stain; graded Strong/Weak/Negative.
Type: biochemical
Procedure, shortened: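 Bovine dephosphorylated MBP coated on aldehyde- or epoxy-glass slides, kinases printed on top; reaction buffer pH 7.5 with 4 mM MgCl2, 20 uM ATP, 5% DMSO, ± inhibitor, at 30° C. Phosphorylation detected by ProQ Diamond stain, 30 min in dark.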

| Molecule | MBP Kinase Activity |
| --- | --- |
| SGK2 (protein, left off: a dimerising Fc or GST) LPDHCYRMNSSPAGTPSPQPSRANGNINLGPSANPNAQPTDFDFLKVIGKGNYGKVLLAKRKSDGAFYAVKVLQKKSILKKKEQSHIMAERSVLLKNVRHPFLVGLRYSFQTPEKLYFVLDYVNGGELFFHLQRERRFLEPRARFYAAEVASAIGYLHSLNIIYRDLKPENILLDCQGHVVLTDFGLCKEGVEPEDTTSTFCGTPEYLAPEVLRKEPYDRAVDWWCLGAVLYEMLHGLPPFYSQDVSQMYENILHQPLQIPGGRTVAACDLLQSLLHKDQRQRLGSKADFLEIKNHVFFSPINWDDLYHKRLTPPFNPNVTGPADLKHFDPEFTQEAVSKSIGCTPDTVASSSGASSAFLGFDYAPEDDDILDC | Weak |
| SGKL(SGK3) (protein, UniProt Q96BR1 1-496, looked up) Serine/threonine-protein …: MQRDHTMDYKESCPSVSIPSSDEHREKKKRFTVYKVLVSVGRSEWFVFRRYAEFDKLYNTLKKQFPAMALKIPAKRIFGDNFDPDFIKQRRAGLNEFIQNLVRYPELYNHPDVRAFLQMDSPKHQSDPSEDEDERSSQKLHSTSQNINLGPSGNPHAKPTDFDFLKVIGKGSFGKVLLAKRKLDGKFYAVKVLQKKIVLNRKEQKHIMAERNVLLKNVKHPFLVGLHYSFQTTEKLYFVLDFVNGGELFFHLQRERSFPEHRARFYAAEIASALGYLHSIKIVYRDLKPENILLDSVGHVVLTDFGLCKEGIAISDTTTTFCGTPEYLAPEVIRKQPYDNTVDWWCLGAVLYEMLYGLPPFYCRDVAEMYDNILHKPLSLRPGVSLTAWSILEELLEKDRQNRLGAKEDFLEIQNHPFFESLSWADLVQKKIPPPFNPNVAGPDDIRNFDTAFTEETVPYSVCVSSDYSIVNASVLEADDAFVGFSYAPPSEDLFL | Weak |
| RPS6KB2(p70S6K2) (protein, left off: a dimerising Fc or GST) MAAVFDLDLETEEGSEGEGEPELSPADACPLAELRAAGLEPVGHYEEVELTETSVNVGPERIGPHCFELLRVLGKGGYGKVFQVRKVQGTNLGKIYAMKVLRKAKIVRNAKDTAHTRAERNILESVKHPFIVELAYAFQTGGKLYLILECLSGGELFTHLEREGIFLEDTACFYLAEITLALGHLHSQGIIYRDLKPENIMLSSQGHIKLTDFGLCKESIHEGAVTHTFCGTIEYMAPEILVRSGHNRAVDWWSLGALMYDMLTGSPPFTAENRKKTMDKIIRGKLALPPYLTPDARDLVKKFLKRNPSQRIGGGPGDAADVQRHPFFRHMNWDDLLAWRVDPPFRPCLQSEEDVSQFDTRFTRQTPVDSPDDTALSESANQAFLGFTYVAPSVLDSIKEGFSFQPKLRSPRRLNSSPRAPVSPLKFSPFEGFRPSPSLPEPTELPLPPLLPPPPPSTTAPLPIRPPSGTKKSKRGRGRPGR | Negative |
| EPHB4 (protein, left off: small tags and cut ends) LCLRKQSNGREAEYSDKHGQYLIGHGTKVYIDPFTYEDPNEAVREFAKEIDVSYVKIEEVIGAGEFGEVCRGRLKAPGKKESCVAIKTLKGGYTERQRREFLSEASIMGQFEHPNIIRLEGVVTNSMPVMILTEFMENGALDSFLRLNDGQFTVIQLVGMLRGIASGMRYLAEMSYVHRDLAARNILVNSNLVCKVSDFGLSRFLEENSSDPTYTSSLGGKIPIRWTAPEAIAFRKFTSASDAWSYGIVMWEVMSFGERPYWDMSNQDVINAIEQDYRLPPPPDCPTSLHQLMLDCWQKDRNARPRFPQVVSALDKMIRNPASLKIVARENGGASHPLLDQRQPHYSAFGSVGEWLRAIKMGRYEESFAAAGFGSFELVSQISAEDLLRIGVTLAGHQKKILASVQHMKSQAKPGTPGGTGGPAPQY | Strong |
| SGK (protein, UniProt O00141 1-431, looked up) Serine/threonine-protein …: MTVKTEAAKGTLTYSRMRGMVAILIAFMKQRRMGLNDFIQKIANNSYACKHPEVQSILKISQPQEPELMNANPSPPPSPSQQINLGPSSNPHAKPSDFHFLKVIGKGSFGKVLLARHKAEEVFYAVKVLQKKAILKKKEEKHIMSERNVLLKNVKHPFLVGLHFSFQTADKLYFVLDYINGGELFYHLQRERCFLEPRARFYAAEIASALGYLHSLNIVYRDLKPENILLDSQGHIVLTDFGLCKENIEHNSTTSTFCGTPEYLAPEVLHKQPYDRTVDWWCLGAVLYEMLYGLPPFYSRNTAEMYDNILNKPLQLKPNITNSARHLLEGLLQKDRTKRLGAKDDFMEIKSHVFFSLINWDDLINKKITPPFNPNVSGPNDLRHFDPEFTEEPVPNSIGKSPDSVLVTASVKEAAEAFLGFSYAPPTDSFL | Strong |
| RPS6KA4(MSK2) (protein, left off: a dimerising Fc or GST) MGDEDDDESCAVELRITEANLTGHEEKVSVENFELLKVLGTGAYGKVFLVRKAGGHDAGKLYAMKVLRKAALVQRAKTQEHTRTERSVLELVRQAPFLVTLHYAFQTDAKLHLILDYVSGGEMFTHLYQRQYFKEAEVRVYGGEIVLALEHLHKLGIIYRDLKLENVLLDSEGHIVLTDFGLSKEFLTEEKERTFSFCGTIEYMAPEIIRSKTGHGKAVDWWSLGILLFELLTGASPFTLEGERNTQAEVSRRILKCSPPFPPRIGPVAQDLLQRLLCKDPKKRLGAGPQGAQEVRNHPFFQGLDWVALAARKIPAPFRPQIRSELDVGNFAEEFTRLEPVYSPPGSPPPGDPRIFQGYSFVAPSILFDHNNAVMTDGLEAPGAGDRPGRAAVARSAMMQDSPFFQQYELDLREPALGQGSFSVCRRCRQRQSGQEFAVKILSRRLEANTQREVAALRLCQSHPNVVNLHEVHHDQLHTYLVLELLRGGELLEHIRKKRHFSESEASQILRSLVSAVSFMHEEAGVVHRDLKPENILYADDTPGAPVKIIDFGFARLRPQSPGVPMQTPCFTLQYAAPELLAQQGYDESCDLWSLGVILYMMLSGQVPFQGASGQGGQSQAAEIMCKIREGRFSLDGEAWQGVSEEAKELVRGLLTVDPAKRLKLEGLRGSSWLQDGSARSSPPLRTPDVLESSGPAVRSGLNATFMAFNRGKREGFFLKSVENAPLAKRRKQKLRSATASRRGSPAPANPGRAPVASKGAPRRANGPLPPS | Weak |
| RPS6KB1(p70S6K) (protein, left off: a dimerising Fc or GST) MRRRRRRDGFYPAPDFRDREAEDMAGVFDIDLDQPEDAGSEDELEEGGQLNESMDHGGVGPYELGMEHCEKFEISETSVNRGPEKIRPECFELLRVLGKGGYGKVFQVRKVTGANTGKIFAMKVLKKAMIVRNAKDTAHTKAERNILEEVKHPFIVDLIYAFQTGGKLYLILEYLSGGELFMQLEREGIFMEDTACFYLAEISMALGHLHQKGIIYRDLKPENIMLNHQGHVKLTDFGLCKESIHDGTVTHTFCGTIEYMAPEILMRSGHNRAVDWWSLGALMYDMLTGAPPFTGENRKKTIDKILKCKLNLPPYLTQEARDLLKKLLKRNAASRLGAGPGDAGEVQAHPFFRHINWEELLARKVEPPFKPLLQSEEDVSQFDSKFTRQTPVDSPDDSTLSESANQVFLGFEYVAPSVLES | Negative |
